Source: US20210179728A1 (OSE IMMUNOTHERAPEUTICS, published 2021)
Values belong to the binder of their own block, whether it stands above or below them.

Columns and labels:
[1] = target: T1, recombinant hSIRPa (Sino Biologicals, reference 11612-H08H) (human, UniProt P78324 31-370); assay: SPR (Biacore); SIRPa-His immobilized on CM5 chip, antibody injected
T1 construct: also called SIRPa-His; human SIRPa-His; not shown: His tag (histidine tail)
Protocol: FIG. 2. Affinity analysis by Biacore of anti-SIRP antibodies on human SIRPa recombinant protein. SIRPa-His recombinant protein was immobilized onto a CM5 chip at 5 μg/ml (500 RU) and the indicated antibodies were added at different concentration.
Method: Recombinant hSIRPa (Sino Biologicals, Beijing, China; reference 11612-H08H) was immobilized into a CM5 sensor chip (GeHealthcare; France) at 5 μg/ml (500 RU) and antibodies were applied at different concentrations with a flow rate of 40 μl/min. Analysis was performed with a BIAcore 3000 (Biacore, GeHealthcare).

[2] = target: T2, recombinant hSIRPb-His (Antibodies-online, reference ABIN3077231) (human, UniProt Q5TFQ8 30-371); assay: BLI (Blitz); SIRPb-His on Ni-NTA biosensor, antibody at 20 ug/ml [B, table A]
T2 construct: also called SIRPb-His (Blitz); not shown: His tag
Protocol: FIG. 7. (A) Affinity analysis by Blitz of anti-SIRP antibodies on human SIRPb recombinant protein. SIRPb-His recombinant protein was immobilized onto a NINTA biosensor and the indicated antibodies were added at 20 μg/ml. […] (B) Binding analysis of anti-SIRP antibodies (human SIRPb-His coating and anti-human kappa detection).
Method: This method was performed with a Blitz (Forte Bio; USA; reference C22-2 No 61010-1). Recombinant hSIRPb-His (Antibodies-online; USA; reference ABIN3077231) was immobilized at 10 μg/ml by histidine tail into a Ni-NTA biosensor (Forte Bio; USA; reference 18-0029) for 30 seconds. Then, an anti-SIRPa antibody was associated at 20 μg/mL for 120 seconds. The dissociation of anti-SIRPa antibody was made in kinetics buffer for 120 seconds. Analysis of data was made with the Blitz pro 1.2 software, which calculated association constant (ka) and dissociation constant (kd) and determined the affinity constant KD […].

[3] = target: T1, recombinant hSIRPa (Sino Biologicals, …); assay: ELISA on immobilized hSIRPa-His, anti-human IgG detection, first experiment; first experiment
Protocol: Method: The binding activity of the anti-SIRPa antibodies was assessed by ELISA.

[4] = target: T1, recombinant hSIRPa (Sino Biologicals, …); assay: ELISA on immobilized SIRPa-His, peroxidase anti-human IgG, DO 450nm [all panels]
Protocol: (§1) Method: For ELISA assay, recombinant hSIRPa (Sino Biologicals, Beijing, China; reference 11612-H08H) was immobilized on plastic at 0.5 μg/ml in carbonate buffer (pH9.2) and different modified anti-SIRPa antibodies were added to measure binding to SIRPa.

[5] = target: T1, recombinant hSIRPa (Sino Biologicals, …); assay: competition ELISA on immobilized SIRPa-His; competitor biotinylated CD47-Fc at 6 ug/ml, streptavidin-peroxidase [second experiment table]
Protocol: (§2) Method: For competitive ELISA assay, recombinant hSIRPa (Sino Biologicals, Beijing, China; reference 11612-H08H) was immobilized on plastic at 0.5 μg/ml in carbonate buffer (pH9.2).

PDL1Fc = target: T3, PDL1Fc (human, UniProt Q9NZQ7 19-238); assay: ELISA: modified antibody (concentration on the axis) captured on SIRPa-His, then PDL1Fc, detected with mouse anti-human PDL1 [panel PD1]
T3 construct: not shown: Fc; not specified
Source text: (§3) FIG. 24. Ligand binding assay with the different modified anti-SIRPa antibodies by ELISA.

[6] = target: T1, recombinant hSIRPa (Sino Biologicals, …); assay: ELISA on immobilized SIRPa-His, peroxidase anti-human IgG, DO 450nm [panel PD1]
Protocol: as §1

[7] = target: T1, recombinant hSIRPa (Sino Biologicals, …); assay: competition ELISA on coated SIRPa-His; competitor biotinylated CD47-Fc at 6 ug/ml, streptavidin-peroxidase [panel PD1]
Protocol: as §2

[8] = target: T1, recombinant hSIRPa (Sino Biologicals, …); assay: ELISA on immobilized SIRPa-His, peroxidase anti-human IgG, DO 450nm [panel 4-1BBL]
Protocol: as §1

4-1BBFcHis = target: T4, 4-1BBFcHis (UniProt Q07011 24-186); assay: ELISA: modified antibody (concentration on the axis) captured on SIRPa-His, then 4-1BBFcHis, detected with mouse anti-His [panel 4-1BBL]
T4 construct: not shown: Fc and His tag; not specified
Source text: as §3

CD28Fc = target: T5, CD28Fc (human, UniProt P10747 19-152, limits assumed); assay: ELISA: modified antibody (concentration on the axis) captured on SIRPa-His, then CD28Fc, detected with mouse anti-human CD28 [panel ICOSL]
T5 construct: not shown: Fc; not specified
Source text: as §3

[9] = target: T1, recombinant hSIRPa (Sino Biologicals, …); assay: ELISA on immobilized SIRPa-His, peroxidase anti-human IgG, DO 450nm [panel ICOSL]
Protocol: as §1

[10] = target: T1, recombinant hSIRPa (Sino Biologicals, …); assay: competition ELISA on coated SIRPa-His; competitor biotinylated CD47-Fc at 6 ug/ml, streptavidin-peroxidase [panel PDL1]
Protocol: as §2

PD1His = target: T6, PD1His (human, UniProt Q15116 25-170, limits assumed); assay: ELISA: modified antibody (concentration on the axis) captured on SIRPa-His, then PD1His, detected with mouse anti-His [panel PDL1]
T6 construct: not shown: His tag
Source text: as §3

[11] = target: T1, recombinant hSIRPa (Sino Biologicals, …); assay: competition ELISA on coated SIRPa-His; competitor biotinylated CD47-Fc at 6 ug/ml, streptavidin-peroxidase [panel 4-1BBL]
Protocol: as §2

B1: HEFLB (antibody, human IgG4 S228P, kappa)
heavy: not shown
light: DVVMTQSPLSLPVTLGQPASISCRSSQSLVHSYGNTYLYWFQQRPGQSPRLLIYRVSNRFSGVPDRFSGSGSGTDFTLKISRVEAEDVGVYYCFQGTHVPYTFGGGTKVEIKRTVAAPSVFIFPPSDEQLKSGTASVVCLLNNFYPREAKVQWKVDNALQSGNSQESVTEQDSKDSTYSLSSTLTLSKADYEKHKVYACEVTHQGLSSPVTKSFNRGEC
notes: humanized 18D5 variant; IgG4m (S228P) / kappa; also called anti-SIRPa HEFLB
- Kd [1]: 0.289 nM
- koff [1]: 0.000189 s⁻¹
- kon [1]: 654000 M⁻¹ s⁻¹
- Kd [2]: 86.9 nM
- koff [2]: 0.00171 s⁻¹
- kon [2]: 19400 M⁻¹ s⁻¹
- EC50 [3]: 0.0044 µg/mL
- EC50 (read off the curve) [4]: ~0.01 µg/mL
- IC50 [5]: 0.186 µg/mL

B2: modified anti-SIRPa HEFLB antibody with ECD of PD1 on the heavy chain (antibody, human IgG4 S228P, kappa)
heavy: not shown
light: DVVMTQSPLSLPVTLGQPASISCRSSQSLVHSYGNTYLYWFQQRPGQSPRLLIYRVSNRFSGVPDRFSGSGSGTDFTLKISRVEAEDVGVYYCFQGTHVPYTFGGGTKVEIKRTVAAPSVFIFPPSDEQLKSGTASVVCLLNNFYPREAKVQWKVDNALQSGNSQESVTEQDSKDSTYSLSSTLTLSKADYEKHKVYACEVTHQGLSSPVTKSFNRGEC
notes: also called VHprot+VL (PD1); HEF-PD1 + LB
- binding result (PDL1Fc): binds
- EC50 (read off the curve) [6]: ~0.008 µg/mL
- IC50 (read off the curve) [7]: ~0.2 µg/mL

B4: modified anti-SIRPa HEFLB antibody with ECD of ICOSL on the light chain (antibody, human IgG4 S228P, kappa)
heavy: not shown
light: DVVMTQSPLSLPVTLGQPASISCRSSQSLVHSYGNTYLYWFQQRPGQSPRLLIYRVSNRFSGVPDRFSGSGSGTDFTLKISRVEAEDVGVYYCFQGTHVPYTFGGGTKVEIKRTVAAPSVFIFPPSDEQLKSGTASVVCLLNNFYPREAKVQWKVDNALQSGNSQESVTEQDSKDSTYSLSSTLTLSKADYEKHKVYACEVTHQGLSSPVTKSFNRGECGGGGSGGGGSGGGGSDTQEKEVRAMVGSDVELSCACPEGSRFDLNDVYVYWQTSESKTVVTYHIPQNSSLENVDSRYRNRALMSPAGMLRGDFSLRLFNVTPQDEQKFHCLVLSQSLGFQEVLSVEVTLHVAANFSVPVVSAPHSPSQDELTFTCTSINGYPRPNVYWINKTDNSLLDQALQNDTVFLNMRGLYDVVSVLRIARTPSVNIGCCIENVLLQQNLTVGSQTGNDIGERDKITENPVSTGEKNAAT
notes: as m32, ECD of ICOSL; also called VH+VLprot (ICOSL); HEF + LB-ICOSL
- binding result (CD28Fc): binds
- EC50 (read off the curve) [9]: ~0.006 µg/mL

Results, then the binder that gave them:

- EC50 (read off the curve) [8]: ~0.007 µg/mL
- EC50 (read off the curve) (4-1BBFcHis): ~0.2 µg/mL
B3: modified anti-SIRPa HEFLB antibody with ECD of 4-1BBL on the light chain (antibody, human IgG4 S228P, kappa)
heavy: not shown
light: DVVMTQSPLSLPVTLGQPASISCRSSQSLVHSYGNTYLYWFQQRPGQSPRLLIYRVSNRFSGVPDRFSGSGSGTDFTLKISRVEAEDVGVYYCFQGTHVPYTFGGGTKVEIKRTVAAPSVFIFPPSDEQLKSGTASVVCLLNNFYPREAKVQWKVDNALQSGNSQESVTEQDSKDSTYSLSSTLTLSKADYEKHKVYACEVTHQGLSSPVTKSFNRGECGGGGSGGGGSGGGGSREGPELSPDDPAGLLDLRQGMFAQLVAQNVLLIDGPLSWYSDPGLAGVSLTGGLSYKEDTKELVVAKAGVYYVFFQLELRRVVAGEGSGSVSLALHLQPLRSAAGAAALALTVDLPPASSEARNSAFGFQGRLLHLSAGQRLGVHLHTEARARHAWQLTQGATVLGLFRVTPEIPAGLPSPRSE
notes: as m32, ECD of 4-1BBL; also called VH+VLprot (4-1BBL); HEF + LB-4-1BBL

- IC50 (read off the curve) [10]: ~0.3 µg/mL
- binding result (PD1His): binds
B5: modified anti-SIRPa HEFLB antibody with ECD of PDL1 on the heavy chain (antibody, human IgG4 S228P, kappa)
heavy: not shown
light: DVVMTQSPLSLPVTLGQPASISCRSSQSLVHSYGNTYLYWFQQRPGQSPRLLIYRVSNRFSGVPDRFSGSGSGTDFTLKISRVEAEDVGVYYCFQGTHVPYTFGGGTKVEIKRTVAAPSVFIFPPSDEQLKSGTASVVCLLNNFYPREAKVQWKVDNALQSGNSQESVTEQDSKDSTYSLSSTLTLSKADYEKHKVYACEVTHQGLSSPVTKSFNRGEC
notes: as m25, ECD of PDL1; also called VHprot+VL (PDL1); VH-PDL1

- IC50 (read off the curve) [11]: ~0.3 µg/mL
B6: modified anti-SIRPa HEFLB antibody with ECD of 4-1BBL on the heavy chain (antibody, human IgG4 S228P, kappa)
heavy: not shown
light: DVVMTQSPLSLPVTLGQPASISCRSSQSLVHSYGNTYLYWFQQRPGQSPRLLIYRVSNRFSGVPDRFSGSGSGTDFTLKISRVEAEDVGVYYCFQGTHVPYTFGGGTKVEIKRTVAAPSVFIFPPSDEQLKSGTASVVCLLNNFYPREAKVQWKVDNALQSGNSQESVTEQDSKDSTYSLSSTLTLSKADYEKHKVYACEVTHQGLSSPVTKSFNRGEC
notes: as m25, ECD of 4-1BBL; also called VHprot+VL (4-1BBL); VH-4-1BBL
